From paper PMC9177848 come the findings set out here.

The target of the first test is LgBiT-mini-Gs fusion protein. Nature of the test: NanoBiT mini-Gαs recruitment assay. To be noted: agonist fenoldopam; three independent experiments; parent: est. 7.2; read off a plot.
Turning to “D1R-SmBiT fusion protein (WT) (from UniProt P21728) F288A”, the other: pEC50 is 6.
Take “D1R-SmBiT fusion protein (WT) (from UniProt P21728) F289A”: the other: pEC50 is 6.1.
In the case of “D1R-SmBiT fusion protein (WT) (from UniProt P21728) K81V”, the other: pEC50 was determined as 6.
“D1R-SmBiT fusion protein (WT) (from UniProt P21728) L190A”: the other: pEC50 worked out at 5.
Take “D1R-SmBiT fusion protein (WT) (from UniProt P21728) N292L”: the other: pEC50 came to 5.4.
As for “D1R-SmBiT fusion protein (WT) (from UniProt P21728) S198G”, the other: pEC50 amounted to 5.1.
Consider “D1R-SmBiT fusion protein (WT) (from UniProt P21728) S202A”, for which the other: pEC50 stood at 6.6.
Same read-out and setting: in the case of “D1R-SmBiT fusion protein (WT) (from UniProt P21728) W321F” it was 6.5.

Another test concerns the target smBiT-β-arrestin (an N-terminal smBiT) (UniProt P32121). Nature of the test: NanoBiT β-arrestin recruitment assay. The note with it: highest fenoldopam concentration shown, log[Fenoldopam] M about -4.3; parent: est. 2.7; read off a plot.
In the case of “D1R-LgBit (WT) (from UniProt P21728) K81V”, the response was found to be 1.2 fold change.
